Results on one molecule are retold here after US20230272041A1 (DRAGONFLY THERAPEUTICS, published 2023).

A value given as a limit tells only on which side of the number the result lay.

Experiment [1] deals with human FcRn (human, UniProt P55899 24-297; P61769 21-119). Nature of the experiment: FcRn binding at pH 6.0, reference IgG1 isotype control trastuzumab (method not stated in the paragraph).
For experiment [2], the target named is cynomolgus monkey FcRn (cynomolgus monkey, UniProt Q8SPV9 24-297; Q8SPW0 21-119). The experiment is described as above.
cynomolgus monkey FcRn, sequence (Q8SPV9 24-297 limits assumed, chain 1 of 2): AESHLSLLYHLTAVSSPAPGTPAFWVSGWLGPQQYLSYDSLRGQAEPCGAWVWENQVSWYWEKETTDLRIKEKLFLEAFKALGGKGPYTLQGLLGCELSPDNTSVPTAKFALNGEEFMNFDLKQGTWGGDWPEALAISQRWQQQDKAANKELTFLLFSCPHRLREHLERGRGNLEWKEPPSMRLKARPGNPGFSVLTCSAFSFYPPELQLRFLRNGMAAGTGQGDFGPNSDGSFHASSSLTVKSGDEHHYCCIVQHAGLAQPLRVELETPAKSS
cynomolgus monkey FcRn, sequence (Q8SPW0 21-119 limits assumed, chain 2 of 2): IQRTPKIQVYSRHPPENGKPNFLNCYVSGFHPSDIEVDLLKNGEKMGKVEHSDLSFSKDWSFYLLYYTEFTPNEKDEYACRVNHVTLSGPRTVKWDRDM
The target of experiment [3] is T1, recombinant human CD16a F158 allele (human, UniProt P08637 17-208, site-specific biotinylation (site not stated)).
T1 construct: also called FcγRIIIA F158
T1 sequence (P08637 17-208 limits assumed): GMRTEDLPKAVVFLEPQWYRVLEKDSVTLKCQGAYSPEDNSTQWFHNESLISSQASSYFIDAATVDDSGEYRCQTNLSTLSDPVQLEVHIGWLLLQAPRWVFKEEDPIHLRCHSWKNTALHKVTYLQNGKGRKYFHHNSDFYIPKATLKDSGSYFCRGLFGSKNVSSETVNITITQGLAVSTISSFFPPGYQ
Nature of the experiment: SPR (Biacore 8K), receptor captured on the chip via site-specific biotinylation; qualitative assessment. (SPR reads the build-up and loss of mass on a sensor chip optically.)

The target of experiment [4] is T2, recombinant human CD32a R131 allele (human, UniProt P12318 36-218, limits assumed, site-specific biotinylation (site not stated)).
T2 construct: also called FcγRIIA R131
T2 sequence (looked up): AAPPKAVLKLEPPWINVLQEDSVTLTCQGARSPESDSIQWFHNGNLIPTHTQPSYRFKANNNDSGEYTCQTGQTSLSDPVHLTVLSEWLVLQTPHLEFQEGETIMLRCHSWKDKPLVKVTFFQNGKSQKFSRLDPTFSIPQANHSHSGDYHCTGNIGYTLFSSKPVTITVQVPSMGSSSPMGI
The experiment is described as above.

Experiment [5] concerns the target T3, recombinant human CD16a V158 allele (human, UniProt P08637 17-208, site-specific biotinylation (site not stated)).
T3 construct: also called FcγRIIIA V158
The experiment is described as above.

The target of experiment [6] is T4, recombinant human CD16b (human, UniProt O75015 17-200, site-specific biotinylation (site not stated)).
T4 construct: also called FcγRIIIB
T4 sequence (O75015 17-200 limits assumed): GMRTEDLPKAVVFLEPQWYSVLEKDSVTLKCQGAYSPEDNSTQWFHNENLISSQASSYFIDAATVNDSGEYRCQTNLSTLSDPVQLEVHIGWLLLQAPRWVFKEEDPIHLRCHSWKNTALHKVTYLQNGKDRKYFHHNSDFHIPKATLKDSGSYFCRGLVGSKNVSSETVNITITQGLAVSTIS
The experiment is described as above.

The target of experiment [7] is T5, recombinant human CD32b (human, UniProt P31994 46-217, limits assumed, site-specific biotinylation (site not stated)).
T5 construct: also called FcγRIIB
T5 sequence (looked up): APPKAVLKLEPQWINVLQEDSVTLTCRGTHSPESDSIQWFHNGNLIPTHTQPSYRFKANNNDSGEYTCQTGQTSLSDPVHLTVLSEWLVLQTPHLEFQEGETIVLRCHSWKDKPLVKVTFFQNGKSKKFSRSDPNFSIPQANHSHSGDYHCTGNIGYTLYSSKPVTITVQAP
The description is as above.

Experiment [8] has as its target T6, recombinant human CD64 (human, UniProt P12314 16-288, limits assumed, site-specific biotinylation (site not stated)).
T6 construct: also called FcγRI
The experiment is described as above.

In experiment [9] the target is recombinant cynomolgus CD16 (cynomolgus, UniProt Q8SPW2 17-208, site-specific biotinylation (site not stated)). Described as above.
recombinant cynomolgus CD16, sequence (Q8SPW2 17-208 limits assumed): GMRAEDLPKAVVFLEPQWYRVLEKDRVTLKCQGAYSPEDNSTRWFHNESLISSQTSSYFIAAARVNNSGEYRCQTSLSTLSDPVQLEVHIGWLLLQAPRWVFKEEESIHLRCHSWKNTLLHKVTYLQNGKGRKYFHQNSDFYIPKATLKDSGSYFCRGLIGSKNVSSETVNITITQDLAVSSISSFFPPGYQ
Experiment [10] deals with T7, recombinant human CD32a H131 allele (human, UniProt P12318 36-218, limits assumed, site-specific biotinylation (site not stated)).
T7 construct: also called FcγRIIA H131
T7 sequence (looked up): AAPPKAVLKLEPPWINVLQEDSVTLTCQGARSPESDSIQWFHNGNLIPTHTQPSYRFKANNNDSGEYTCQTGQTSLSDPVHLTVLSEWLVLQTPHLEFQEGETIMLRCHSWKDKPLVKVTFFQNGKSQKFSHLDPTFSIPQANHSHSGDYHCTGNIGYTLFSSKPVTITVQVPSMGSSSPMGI
The experiment is described as above.

T6 sequence (P12314 16-288 limits assumed): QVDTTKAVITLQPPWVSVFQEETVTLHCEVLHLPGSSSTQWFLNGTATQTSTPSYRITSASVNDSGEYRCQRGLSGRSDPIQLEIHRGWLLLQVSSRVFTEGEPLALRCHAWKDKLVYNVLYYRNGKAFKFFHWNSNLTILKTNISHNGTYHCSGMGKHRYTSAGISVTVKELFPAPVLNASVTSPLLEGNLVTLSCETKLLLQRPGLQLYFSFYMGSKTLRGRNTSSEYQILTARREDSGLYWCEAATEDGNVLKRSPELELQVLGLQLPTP
T3 sequence (P08637 17-208 F176V limits assumed): as the sequence (P08637 17-208 limits assumed) above, with F160V counted along it
human FcRn, sequence (P55899 24-297 limits assumed, form in doubt, chain 1 of 2): as the sequence (Q8SPV9 24-297 limits assumed, chain 1 of 2) above, with D39N, Q44E, S99G, G189S, N190S, M217L, T269S counted along it
human FcRn, sequence (P61769 21-119 limits assumed, form in doubt, chain 2 of 2): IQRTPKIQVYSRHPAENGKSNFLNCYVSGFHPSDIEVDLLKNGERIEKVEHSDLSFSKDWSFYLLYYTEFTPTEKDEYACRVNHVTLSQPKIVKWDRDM

B1: DF-hIL-12-Fc si (Fc fusion)
chain 1: IWELKKDVYVVELDWYPDAPGEMVVLTCDTPEEDGITWTLDQSSEVLGSGKTLTIQVKEFGDAGQYTCHKGGEVLSHSLLLLHKKEDGIWSTDILKDQKEPKNKTFLRCEAKNYSGRFTCWWLTTISTDLTFSVKSSRGSSDPQGVTCGAATLSAERVRGDNKEYEYSVECQEDSACPAAEESLPIEVMVDAVHKLKYENYTSSFFIRDIIKPDPPKNLQLKPLKNSRQVEVSWEYPDTWSTPHSYFSLTFCVQVQGKSKREKKDRVFTDKTSATVICRKNASISVRAQDRYYSSSWSEWASVPCSPKSSDKTHTCPPCPAPEAAGGPSVFLFPPKPKDTLMISRTPEVTCVVVDVSHEDPEVKFNWYVDGVEVHNAKTKPREEQYNSTYRVVSVLTVLHQDWLNGKEYKCKVSNKALAAPIEKTISKAKGQPREPQVCTLPPSRDELTENQVSLTCLVKGFYPSDIAVEWESNGQPENNYKTTPPVLDSDGSFFLYSWLTVDKSRWQQGNVFSCSVMHEALHNHYTQKSLSLSPG
chain 2: RNLPVATPDPGMFPCLHHSQNLLRAVSNMLQKARQTLEFYPCTSEEIDHEDITKDKTSTVEACLPLELTKNESCLNSRETSFITNGSCLASRKTSFMMALCLSSIYEDLKMYQVEFKTMNAKLLMDPKRQIFLDQNMLAVIDELMQALNFNSETVPQKSSLEEPDFYKTKIKLCILLHAFRIRAVTIDRVMSYLNASGGGGSGGGGSGGGGSEPKSSDKTHTCPPCPAPEAAGGPSVFLFPPKPKDTLMISRTPEVTCVVVDVSHEDPEVKFNWYVDGVEVHNAKTKPREEQYNSTYRVVSVLTVLHQDWLNGKEYKCKVSNKALAAPIEKTISKAKGQPREPRVYTLPPCRDELTKNQVSLTCLVKGFYPSDIAVEWESNGQPENNYKTTPPVLVSDGSFTLYSKLTVDKSRWQQGNVFSCSVMHEALHNHYTQKSLSLSPG
notes: also called DF IL-12-Fc; hIL-12-Fc-LALAPA
In the case of B1, the “fold difference in binding affinity value against trastuzumab” value in experiment [1] and in [2] was below 1.5 fold throughout. The binding result in [3], in experiment [4], in experiment [5], in [6], in experiment [7] and in experiment [8] was “no binding” each time. Moreover, the binding result in [9] and in experiment [10] was “no binding” each time.
